Assay results: patent US6635429B1
Each block holds one binder with its values, some of them ahead of it.

Tests used:
[1] = biological target: bacterially-expressed hRAR-γ (human) (UniProt P13631); experiment: complementation gel retardation with bacterially-expressed hRAR-γ on β-RARE; cpm in the complex per µg of protein of the purification step
[2] = biological target: mRXR-α (mouse)

Specific Activity (cpm/µg) [1]: 7.75e+06 cpm/µg
B1: purified HeLa cell RBF (HAP-TSK) (receptor)
chain: MSWAARPPFLPQRHAAGQCGPVGVRKEMHCGVASRWRRRRPWLDPAAAAAAAVAGGEQQTPEPEPGEAGRDGMGDSGRDSRSPDSSSPNPLPQGVPPPSPPGPPLPPSTAPTLGGSGAPPPPPMPPPPLGSPFPVISSSMGSPGLPPPAPPGFSGPVSSPQINSTVSLPGGGSGPPEDVKPPVLGVRGLHCPPPPGGPGAGKRLCAICGDRSSGKHYGVYSCEGCKGFFKRTIRKDLTYSCRDNKDCTVDKRQRNRCQYCRYQKCLATGMKREAVQEERQRGKDKDGDGEGAGGAPEEMPVDRILEAELAVEQKSDQGVEGPGGTGGSGSSPNDPVTNICQAADKQLFTLVEWAKRIPHFSSLPLDDQVILLRAGWNELLIASFSHRSIDVRDGILLATGLHVHRNSAHSAGVGAIFDRVLTELVSKMRDMRMDKTELGCLRAIILFNPDAKGLSNPSEVEVLREKVYASLETYCKQKYPEQQGRFAKLLLRLPALRSIGLKCLEHLFFFKLIGDTPIDTFLMEMLEAPHQLA

OMPdecase activity of the DR1-URA3 reporter in yeast [2]: 30 fold
B2: mRXR-α (receptor)
chain: MDTKHFLPLDFSTQVNSSSLNSPTGRGSMAVPSLHPSLGPGIGSPLGSPGQLHSPISTLSSPINGMGPPFSVISSPMGPHSMSVPTTPTLGFGTGSPQLNSPMNPVSSTEDIKPPLGLNGVLKVPAHPSGNMASFTKHICAICGDRSSGKHYGVYSCEGCKGFFKRTVRKDLTYTCRDNKDCLIDKRQRNRCQYCRYQKCLAMGMKREAVQEERQRGKDRNENEVESTSSANEDMPVEKILEAELAVEPKTETYVEANMGLNPSSPNDPVTNICQAADKQLFTLVEWAKRIPHFSELPLDDQVILLRAGWNELLIASFSHRSIAVKDGILLATGLHVHRNSAHSAGVGAIFDRVLTELVSKMRDMQMDKTELGCLRAIVLFNPDSKGLSNPAEVEALREKVYASLEAYCKHKYPEQPGRFAKLLLRLPALRSIGLKCLEHLFFFKLIGDTPIDTFLMEMLEAPHQAT
